Data: patent US20240400614A1, “CLEAVABLE PEPTIDES AND METHODS OF USE THEREOF” (Bright Peak Therapeutics AG, priority 2023, published 2024)
Square brackets hold non-standard residues; d marks the D form. Ends that are not written are not given here. Tyr(3-NO2) = N[C@@H](Cc1ccc(O)c([N+](=O)[O-])c1)C(=O)O; Nle = CCCC[C@H](N)C(=O)O; 2Abz = Nc1ccccc1C(=O)O

How the values were obtained:
Format in all cases: biochemical
[1] = target: T1, matriptase (Homo sapiens, UniProt Q9Y5Y6); experiment: FRET peptide cleavage efficiency with matriptase
T1 construct: purchased R&D Systems 3946-SEB
T1 sequence (Q9Y5Y6 615-855 limits assumed): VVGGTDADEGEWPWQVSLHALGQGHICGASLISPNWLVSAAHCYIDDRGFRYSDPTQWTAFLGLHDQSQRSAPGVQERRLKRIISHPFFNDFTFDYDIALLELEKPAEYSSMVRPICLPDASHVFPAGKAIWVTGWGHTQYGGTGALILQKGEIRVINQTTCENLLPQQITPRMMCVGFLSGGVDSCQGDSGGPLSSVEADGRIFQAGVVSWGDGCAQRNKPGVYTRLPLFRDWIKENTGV

[2] = target: T2, MMP-2 (Homo sapiens, UniProt P08253); experiment: FRET peptide cleavage efficiency with MMP-2
T2 construct: purchased SIGMA PF023
T2 sequence (P08253 110-660): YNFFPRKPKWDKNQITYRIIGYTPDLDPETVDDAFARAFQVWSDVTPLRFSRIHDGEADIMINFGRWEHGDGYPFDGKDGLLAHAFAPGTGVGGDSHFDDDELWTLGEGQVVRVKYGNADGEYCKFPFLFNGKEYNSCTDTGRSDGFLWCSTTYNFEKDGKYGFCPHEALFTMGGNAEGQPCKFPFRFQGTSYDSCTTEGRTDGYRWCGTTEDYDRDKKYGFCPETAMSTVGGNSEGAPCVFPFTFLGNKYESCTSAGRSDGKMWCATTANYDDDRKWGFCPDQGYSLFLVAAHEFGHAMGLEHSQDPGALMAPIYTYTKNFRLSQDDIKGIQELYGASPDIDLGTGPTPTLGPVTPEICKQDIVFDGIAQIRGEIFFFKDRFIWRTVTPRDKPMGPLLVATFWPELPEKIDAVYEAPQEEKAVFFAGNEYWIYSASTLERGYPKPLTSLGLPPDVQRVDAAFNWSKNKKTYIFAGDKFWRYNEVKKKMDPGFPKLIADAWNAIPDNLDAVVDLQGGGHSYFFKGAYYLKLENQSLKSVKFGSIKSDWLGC

[3] = target: Kallikrein-3 (Homo sapiens, UniProt P07288); experiment: FRET peptide cleavage efficiency with Kallikrein-3; conditions: peptide 200 uM, Kallikrein-3 2 μg/ml, 37° C., pH 8
[4] = target: T3, MMP-7 (Homo sapiens, UniProt P09237); experiment: FRET peptide cleavage efficiency with MMP-7 (standard pH 7.5; also pH 6.5)
T3 construct: purchased SIGMA CC1059
T3 sequence (P09237 95-267): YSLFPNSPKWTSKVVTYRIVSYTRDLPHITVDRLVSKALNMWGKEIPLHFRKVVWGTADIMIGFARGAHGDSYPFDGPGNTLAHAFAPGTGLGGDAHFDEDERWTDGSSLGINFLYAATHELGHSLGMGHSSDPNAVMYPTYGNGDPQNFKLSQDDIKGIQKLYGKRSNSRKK

[5] = target: uPA (Homo sapiens, UniProt P00749); experiment: FRET peptide cleavage efficiency with uPA
[6] = target: T4, MMP-9 (Homo sapiens, UniProt P14780); experiment: FRET peptide cleavage efficiency with MMP-9 (standard pH 7.5; also pH 6.5)
T4 construct: purchased SIGMA PF024

[7] = 200 uM linker, 1 ug/ml protease, 37° C., buffer B pH 9.0
[8] = t = 15 min, 200 uM linker, 1 ug/ml protease, 37° C., buffer C pH 7.5
[9] = t = 60 min, 200 uM linker, 1 ug/ml protease, 37° C., buffer C pH 7.5
[10] = t = 120 min, 200 uM linker, 1 ug/ml protease, 37° C., buffer C pH 7.5
[11] = t = 15 min, standard conditions (Table 8)
[12] = t = 60 min, standard conditions (Table 8)
[13] = t = 120 min, standard conditions (Table 8)
[14] = 200 uM linker, 1 ug/ml protease, 37° C., buffer A pH 8.5

Sequence of Kallikrein-3 (P07288 25-261, species assumed): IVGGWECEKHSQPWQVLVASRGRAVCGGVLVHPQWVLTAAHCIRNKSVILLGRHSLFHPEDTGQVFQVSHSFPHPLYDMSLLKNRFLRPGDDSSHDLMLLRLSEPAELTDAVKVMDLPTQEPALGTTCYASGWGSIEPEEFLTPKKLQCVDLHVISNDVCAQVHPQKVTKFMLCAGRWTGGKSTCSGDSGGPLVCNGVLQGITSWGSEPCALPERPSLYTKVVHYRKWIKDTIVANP
T4 sequence (P14780 94-707): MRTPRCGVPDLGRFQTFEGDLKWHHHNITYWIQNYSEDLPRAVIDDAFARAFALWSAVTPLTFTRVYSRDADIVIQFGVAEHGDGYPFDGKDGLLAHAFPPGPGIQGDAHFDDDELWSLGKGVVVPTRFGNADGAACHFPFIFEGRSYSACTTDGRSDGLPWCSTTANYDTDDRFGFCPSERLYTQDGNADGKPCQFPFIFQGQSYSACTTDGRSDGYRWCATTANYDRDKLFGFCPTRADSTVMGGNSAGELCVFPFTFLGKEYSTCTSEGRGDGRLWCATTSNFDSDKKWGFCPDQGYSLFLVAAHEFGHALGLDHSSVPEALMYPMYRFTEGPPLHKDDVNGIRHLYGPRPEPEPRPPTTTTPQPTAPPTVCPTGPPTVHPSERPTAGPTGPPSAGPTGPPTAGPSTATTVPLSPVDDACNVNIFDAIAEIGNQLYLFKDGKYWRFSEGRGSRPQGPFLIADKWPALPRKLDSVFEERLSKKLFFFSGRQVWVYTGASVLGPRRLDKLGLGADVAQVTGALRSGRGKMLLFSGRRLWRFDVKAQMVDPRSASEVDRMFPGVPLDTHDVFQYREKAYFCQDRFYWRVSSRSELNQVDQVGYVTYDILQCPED

| Substance | % cleavage Matriptase t = 15 min [1, 7] | % cleavage Matriptase t = 60 min [1, 7] | % cleavage Matriptase t = 120 min [1, 7] | % cleavage MMP-2 t = 15 min [2, 8] | % cleavage MMP-2 t = 60 min [2, 9] | % cleavage MMP-2 t = 120 min [2, 10] | Kallikrein-3 t = 1 h % cleavage [3] | Kallikrein-3 t = 3 h % cleavage [3] | Kallikrein-3 t = 6 h % cleavage [3] | Kallikrein-3 t = 8 h % cleavage [3] | % cleavage MMP-7 t = 15 min ([4]; t = 15 min (Table 9)) | % cleavage MMP-7 t = 60 min ([4]; t = 60 min (Table 9)) | % cleavage MMP-7 t = 120 min ([4]; t = 120 min (Table 9)) | % cleavage MMP-2 t = 15 min ([2]; t = 15 min (Table 9)) | % cleavage MMP-2 t = 60 min ([2]; t = 60 min (Table 9)) | % cleavage MMP-2 t = 120 min ([2]; t = 120 min (Table 9)) | % cleavage MMP-9 t = 15 min ([6]; t = 15 min (Table 9)) | % cleavage MMP-9 t = 60 min ([6]; t = 60 min (Table 9)) | % cleavage MMP-9 t = 120 min ([6]; t = 120 min (Table 9)) | other results |
| --- | --- | --- | --- | --- | --- | --- | --- | --- | --- | --- | --- | --- | --- | --- | --- | --- | --- | --- | --- | --- |
| SQYQSSPG ([2Abz]SQYQSSPG[Tyr(3-NO2)]-NH2) [LNK067] | 0% | 0% | 0% | 1% | 5% | 10% | 8% | 22% | 41% | 51% | – | – | – | – | – | – | – | – | – | – |
| SSLQSSPG ([2Abz]SSLQSSPG[Tyr(3-NO2)]-NH2) [LNK066] | 0% | 0% | 0% | 1% | 5% | 9% | 14% | 40% | 67% | 78% | – | – | – | – | – | – | – | – | – | – |
| SSLYSSPG ([2Abz]SSLYSSPG[Tyr(3-NO2)]-NH2) [LNK065] | 0% | 0% | 0% | 3% | 12% | 21% | 32% | 68% | 93% | 100% | – | – | – | – | – | – | – | – | – | – |
| RGRKSPY-Nle-LQG ([2Abz]RGRKSPY[Nle]LQG[Tyr(3-NO2)]-NH2) [LNK038] | – | – | – | – | – | – | – | – | – | – | 22% | 69% | 92% | 19% | 55% | 76% | 23% | 71% | 97% | % cleavage MMP-7 t = 15 min [4, 11]: 22%; % cleavage MMP-7 t = 60 min [4, 12]: 69%; % cleavage MMP-7 t = 120 min [4, 13]: 92%; % cleavage Matriptase t = 15 min ([1]; standard conditions (Table 8)): 100%; % cleavage Matriptase t = 60 min ([1]; standard conditions (Table 8)): 100%; % cleavage Matriptase t = 120 min ([1]; standard conditions (Table 8)): 100%; % cleavage MMP-2 t = 60 min [2, 12]: 55%; % cleavage MMP-2 t = 120 min [2, 13]: 76%; % vcleavage uPA t = 15 min ([5]; standard conditions (Table 8)): 0%; % cleavage uPA t = 60 min ([5]; standard conditions (Table 8)): 0%; % cleavage uPA t = 120 min ([5]; standard conditions (Table 8)): 0%; % cleavage MMP-9 t = 15 min [6, 11]: 23%; % cleavage MMP-9 t = 60 min [6, 12]: 71%; % cleavage MMP-9 t = 120 min [6, 13]: 97% |
| SQLYSSPG ([2Abz]SQLYSSPG[Tyr(3-NO2)]-NH2) [LNK068] | 0% | 0% | 0% | 2% | 9% | 18% | 31% | 70% | 94% | 100% | – | – | – | – | – | – | – | – | – | – |
| RGRKSQPLVD ([2Abz]RGRKSQPLVD[Tyr(3-NO2)]-NH2) [LNK041] | – | – | – | – | – | – | – | – | – | – | 1% | 4% | 9% | 0% | 0% | 0% | 0% | 1% | 1% | % cleavage MMP-7 t = 15 min [4, 11]: 1%; % cleavage MMP-7 t = 60 min [4, 12]: 4%; % cleavage MMP-7 t = 120 min [4, 13]: 9%; % cleavage Matriptase t = 15 min ([1]; standard conditions (Table 8)): 100%; % cleavage Matriptase t = 60 min ([1]; standard conditions (Table 8)): 100%; % cleavage Matriptase t = 120 min ([1]; standard conditions (Table 8)): 100%; % cleavage MMP-2 t = 60 min [2, 12]: 0%; % cleavage MMP-2 t = 120 min [2, 13]: 0%; % vcleavage uPA t = 15 min ([5]; standard conditions (Table 8)): 0%; % cleavage uPA t = 60 min ([5]; standard conditions (Table 8)): 0%; % cleavage uPA t = 120 min ([5]; standard conditions (Table 8)): 0%; % cleavage MMP-9 t = 15 min [6, 11]: 0%; % cleavage MMP-9 t = 60 min [6, 12]: 1%; % cleavage MMP-9 t = 120 min [6, 13]: 1% |
| RGRRPLGLAGGSG ([2Abz]RGRRPLGLAGGSG[Tyr(3-NO2)]-NH2) [LNK051] | 22% | 72% | 100% | 73% | 100% | 100% | – | – | – | – | 3% | 8% | 14% | 73% | 100% | 100% | 62% | 100% | 100% | % cleavage uPA t = 15 min [5, 14]: 0%; % cleavage uPA t = 60 min [5, 14]: 0%; % cleavage uPA t = 120 min [5, 14]: 0% |
| RGRRVANPLGYFGKL ([2Abz]RGRRVANPLGYFGKL[Tyr(3-NO2)]-NH2) [LNK058] | 88% | 100% | 100% | 68% | 100% | 100% | – | – | – | – | 0% | 0% | 0% | 68% | 100% | 100% | 31% | 97% | 100% | % cleavage uPA t = 15 min [5, 14]: 1%; % cleavage uPA t = 60 min [5, 14]: 5%; % cleavage uPA t = 120 min [5, 14]: 10% |
